Measured values from article PMC5812716 (2018).
Like-named read-outs stand apart in the source and are kept apart here.

B1: Cy5 labelled FC2 (domain or fragment)
chain: AIDMDKNRVFAQRLRQSVQTYFDEPWALTYANADRLLDMRDEEMALRDEEVTGELPEDLEYEEFNEIREQLAAIIEEQLAVYKTRQVPLDLGLVVREYLSQYPRARHFDVARIVIDQAVRLGVAQADFTGLPAKWQPINDYGAKVQAHVIDKY
modifications: Cy5 label (site not stated)
B2: Cy5 labelled FN3 (domain or fragment)
chain: REFSTLRLSMQLSIVAGELKRAADAAEEGGDEFHWHRNVYAPLKYSVAEIFDSIDLTQRLMDEQQQQVKDDIAQLLNKDWRAAISSCELLLSETSGTLRELQDTLEAAGDKLQANLLRIQDATMTHDDLHFVDRLVFDLQSKLDRIISWGQQSIDLWIGYDRHVHKFIRT
modifications: Cy5 label (site not stated)
B3: Cy5 labelled FN2 (domain or fragment)
chain: MSEFSQTVPELVAWARKNDFSISLPVDRLSFLLAVATLNGERLDGEMSEGELVDAFRHVSDAFEQTSETIGVRANNAINDMVRQRLLNRFTSEQAEGNAIYRLTPLGIGITDYYIRQREFSTLRLSMQLSIVAGELKRAADAAEEGGDEFHWHRNVYAPLKYSVAEIFDSIDLTQRLMDEQQQQVKDDIAQLLNKDWRAAISSCELLLSETSGTLRELQDTLEAAGDKLQANLLRIQDATMTHDDLHFVDRLVFDLQSKLDRIISWGQQSIDLWIGYDRHVHKFIRT
modifications: Cy5 label (site not stated)
B4: Cy5 labelled FN10 (domain or fragment)
chain: MSEFSQTVPELVAWARKNDFSISLPVDRLSFLLAVATLNGERLDGEMSEGELVDAFRHVSDAFEQTSETIGVRANNAINDMVRQRLLNRFTSEQAEGNAIYRLTPLGIGITDYYIRQREFSTLRLSMQLSIVAGELKRAADAAEEGGDEFHWHRNVYAPLKYSVAEIFDSIDLTQRLMDEQQQQVKDDIAQLLNKDWRAAISSCELLLSETSGTLRELQDTLEAAGDKLQANLLRIQDATMTHDDLHFVDRLVFDLQSKLDRIISWGQQSIDLWIGYDRHVHKFIRTAIDMDKNRVFAQRLRQSVQTYFDEPWALTYANADRLLDMRDEEMALRDEEVTGELPED
modifications: Cy5 label (site not stated)

Columns and labels:
MukB [1] = target: T1, MukB (E. coli, UniProt P22523 1-1486); assay: FP
T1 chain: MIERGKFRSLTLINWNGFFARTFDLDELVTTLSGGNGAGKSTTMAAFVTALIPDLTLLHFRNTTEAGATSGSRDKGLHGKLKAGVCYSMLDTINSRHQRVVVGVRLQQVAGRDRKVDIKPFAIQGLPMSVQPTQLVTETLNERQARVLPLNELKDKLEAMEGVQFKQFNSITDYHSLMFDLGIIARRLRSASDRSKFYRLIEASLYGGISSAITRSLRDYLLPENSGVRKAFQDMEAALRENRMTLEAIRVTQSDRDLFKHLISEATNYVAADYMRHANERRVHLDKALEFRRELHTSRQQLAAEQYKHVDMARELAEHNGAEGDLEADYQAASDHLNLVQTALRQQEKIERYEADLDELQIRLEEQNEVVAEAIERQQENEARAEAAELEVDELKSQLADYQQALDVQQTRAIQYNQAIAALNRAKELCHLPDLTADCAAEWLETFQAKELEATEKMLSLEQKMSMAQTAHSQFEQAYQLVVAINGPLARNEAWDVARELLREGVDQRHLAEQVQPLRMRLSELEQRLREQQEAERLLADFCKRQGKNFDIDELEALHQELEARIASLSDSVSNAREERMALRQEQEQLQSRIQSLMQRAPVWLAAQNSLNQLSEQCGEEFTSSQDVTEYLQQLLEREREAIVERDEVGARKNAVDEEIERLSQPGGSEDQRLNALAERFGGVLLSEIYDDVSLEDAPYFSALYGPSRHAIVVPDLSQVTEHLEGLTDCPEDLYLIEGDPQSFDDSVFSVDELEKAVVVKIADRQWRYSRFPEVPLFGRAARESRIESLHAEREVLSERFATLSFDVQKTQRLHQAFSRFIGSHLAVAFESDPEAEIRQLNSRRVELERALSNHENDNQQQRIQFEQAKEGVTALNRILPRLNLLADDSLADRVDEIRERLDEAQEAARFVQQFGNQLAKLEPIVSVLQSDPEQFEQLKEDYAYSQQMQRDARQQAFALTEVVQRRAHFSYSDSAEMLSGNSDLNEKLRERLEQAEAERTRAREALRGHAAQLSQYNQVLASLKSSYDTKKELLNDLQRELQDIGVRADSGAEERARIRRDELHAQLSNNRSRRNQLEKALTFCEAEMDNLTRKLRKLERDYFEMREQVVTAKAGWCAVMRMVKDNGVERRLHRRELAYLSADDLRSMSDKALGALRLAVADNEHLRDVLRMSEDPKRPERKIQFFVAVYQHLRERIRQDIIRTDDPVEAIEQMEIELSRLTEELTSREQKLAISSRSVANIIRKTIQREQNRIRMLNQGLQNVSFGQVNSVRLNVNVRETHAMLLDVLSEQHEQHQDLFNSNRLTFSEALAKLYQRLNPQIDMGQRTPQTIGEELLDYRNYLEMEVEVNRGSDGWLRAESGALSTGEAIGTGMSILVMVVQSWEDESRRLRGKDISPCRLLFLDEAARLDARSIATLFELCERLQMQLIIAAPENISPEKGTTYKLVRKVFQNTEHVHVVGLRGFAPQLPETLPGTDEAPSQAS

MukB [2] = target: T1, MukB

Row | Binder | Kd (MukB [1]) [nM] | Kd (MukB [2]) [nM]
1 | B1 | 23 | 
2 | B2 | 21 | 
3 | B3 |  | 26
4 | B4 |  | 10
